Experimental data: US20250171531A1 (ORIONIS BIOSCIENCES, published 2025)

Experiments:
[1] = molecular target: CD8alpha on CD8 positive T cells of PBMCs (UniProt P01732 22-235, limits assumed); assay: cell-based or functional assay
[2] = molecular target: T1, recombinant IL-2 (Acro Biosystems) (UniProt P60568 21-153); assay: BLI, biotinylated IL-2 on streptavidin sensors, seven concentrations of construct as analyte
T1 construct: also called Interleukin-2; wild type recombinant IL-2
Source text: (§1) In brief, recombinant IL-2 (Acro Biosystems) was biotinylated using the Pierce Antibody Biotinylation Kit for IP (ThermoFisher) and loaded on Streptavidin sensors. […] Sensorgrams and calculated binding kinetics provided in FIG. 2 illustrate that (i) all anti-IL-2 constructs clearly bind to biotinylated IL-2; (ii) for both anti-IL-2 antibody scFv variants, the VL-VH configuration (referred to as scFv_v2) seems to work best; and (iii) TCB2-based anti-IL-2 constructs tend to associate faster, while NARA1 anti-IL-2 constructs dissociate slower.

[3] = molecular target: T1, recombinant IL-2 (Acro Biosystems); assay: BLI (Octet RED96)
Source text: as §1

T1 sequence (P60568 21-153 limits assumed): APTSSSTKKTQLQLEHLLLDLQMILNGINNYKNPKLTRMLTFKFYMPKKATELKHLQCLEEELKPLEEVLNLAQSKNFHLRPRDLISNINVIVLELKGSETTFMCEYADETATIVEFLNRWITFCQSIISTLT
CD8alpha on CD8 positive T cells of PBMCs, sequence (P01732 22-235 limits assumed): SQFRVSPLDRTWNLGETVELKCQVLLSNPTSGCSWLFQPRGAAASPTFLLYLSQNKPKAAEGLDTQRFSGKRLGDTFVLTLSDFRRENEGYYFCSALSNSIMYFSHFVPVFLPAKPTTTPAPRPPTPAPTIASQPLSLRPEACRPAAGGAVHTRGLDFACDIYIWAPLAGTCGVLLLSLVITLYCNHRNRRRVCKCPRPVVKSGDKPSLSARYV

binding result [2] | also measured | Binder
– | IL-2 driven STAT5 phosphorylation in CD8+ over Treg cells [1]: 10 fold | 'knob-in-hole' Fc-Anti-IL-2 construct (TCB2 scFv_v2-hFc3 + hFc4-OKT8 scFv) (bispecific antibody) chain 1: DIVMTQSPASLSMAIGEKVTIRCITSTDIDDDMNWYQQKPGEPPKLLISEGNTLRPGVPSRFSSSGYGTDFVFTIENMLSEDVADYYCLQSDNLPYTFGGGTKLEIKGGGGSGGGGSGGGGSEVQLQQSGAELARPGASVKLSCKASGYTFTTYWIQWVKQRPGQGLEWIGAIYPGDGDTRYIQNFKGKATLTADKSSSTAYMQLSSLASEDSAVYYCARSLATRGFYAMDYWGQGTSVTVSSGGSGGSGGSGGSGGSDKTHTCPPCPAPEAAGGPSVFLFPPKPKDTLMISRTPEVTCVVVDVSHEDPEVKFNWYVDGVEVHNAKTKPREEQYNSTYRVVSVLTVLHQDWLNGKEYKCKVSNKALPAGIEKTISKAKGQPREPQVCTLPPSRDELTKNQVSLSCAVKGFYPSDIAVEWESNGQPENNYKTTPPVLDSDGSFFLVSKLTVDKSRWQQGNVFSCSVMHEALHNHYTQKSLSLSPGK chain 2: not shown
binds | – | anti-IL-2 Ab TCB2 scFv_VH-VL-3*GGGGS-anti-CD8 OKT8 scFv_VH-VL-6*His (bispecific antibody, Single chain of two scFvs with a C-terminal His6 tag; Leader (residues 1-19) left out) EVQLQQSGAELARPGASVKLSCKASGYTFTTYWIQWVKQRPGQGLEWIGAIYPGDGDTRYIQNFKGKATLTADKSSSTAYMQLSSLASEDSAVYYCARSLATRGFYAMDYWGQGTSVTVSSGGGGSGGGGSGGGGSDIVMTQSPASLSMAIGEKVTIRCITSTDIDDDMNWYQQKPGEPPKLLISEGNTLRPGVPSRFSSSGYGTDFVFTIENMLSEDVADYYCLQSDNLPYTFGGGTKLEIKGGGGSGGGGSGGGGSEVQLVQSGAEVKKPGASVKVSCKASGFNIKDTYIHWVRQAPGQGLEWIGRIDPANDNTLYASKFQGRATITADTSTSTAYLELSSLRSEDTAVYYCGRGYGYYVFDHWGQGTLVTVSSGGGGSGGGGSGGGGSDVQITQSPSSLSASVGDRVTITCRTSRSISQYLAWYQEKPGKTNKLLIYSGSTLQSGIPSRFSGSGSGTDFTLTISSLQPEDFATYYCQQVNEFPPTFGQGTKVEIKHHHHHH
binds | – | anti-IL-2 Ab TCB2 scFv_VL-VH-3*GGGGS-anti-CD8 OKT8 scFv_VH-VL-6*His (bispecific antibody, Single chain of two scFvs with a C-terminal His6 tag; Leader (residues 1-19) left out) DIVMTQSPASLSMAIGEKVTIRCITSTDIDDDMNWYQQKPGEPPKLLISEGNTLRPGVPSRFSSSGYGTDFVFTIENMLSEDVADYYCLQSDNLPYTFGGGTKLEIKGGGGSGGGGSGGGGSEVQLQQSGAELARPGASVKLSCKASGYTFTTYWIQWVKQRPGQGLEWIGAIYPGDGDTRYIQNFKGKATLTADKSSSTAYMQLSSLASEDSAVYYCARSLATRGFYAMDYWGQGTSVTVSSGGGGSGGGGSGGGGSEVQLVQSGAEVKKPGASVKVSCKASGFNIKDTYIHWVRQAPGQGLEWIGRIDPANDNTLYASKFQGRATITADTSTSTAYLELSSLRSEDTAVYYCGRGYGYYVFDHWGQGTLVTVSSGGGGSGGGGSGGGGSDVQITQSPSSLSASVGDRVTITCRTSRSISQYLAWYQEKPGKTNKLLIYSGSTLQSGIPSRFSGSGSGTDFTLTISSLQPEDFATYYCQQVNEFPPTFGQGTKVEIKHHHHHH
– | binding result [3]: binds | anti-IL-2 Ab NARA1 scFv_VH-VL-3*GGGGS-anti-CD8 OKT8 scFv_VH-VL-6*His (bispecific antibody, Single chain of two scFvs with a C-terminal His6 tag) QVQLQQSGAELVRPGTSVKVSCKASGYAFTNYLIEWVKQRPGQGLEWIGVINPGSGGTNYNEKFKGKATLTADKSSSTAYMQLSSLTSDDSAVYFCARWRGDGYYAYFDVWGAGTTVTVSSGGGGSGGGGSGGGGSDIVLTQSPASLAVSLGQRATISCKASQSVDYDGDSYMNWYQQKPGQPPKLLIYAASNLESGIPARFSGSGSGTDFTLNIHPVEEEDAATYYCQQSNEDPYTFGGGTKLEIKGGGGSGGGGSGGGGSEVQLVQSGAEVKKPGASVKVSCKASGFNIKDTYIHWVRQAPGQGLEWIGRIDPANDNTLYASKFQGRATITADTSTSTAYLELSSLRSEDTAVYYCGRGYGYYVFDHWGQGTLVTVSSGGGGSGGGGSGGGGSDVQITQSPSSLSASVGDRVTITCRTSRSISQYLAWYQEKPGKTNKLLIYSGSTLQSGIPSRFSGSGSGTDFTLTISSLQPEDFATYYCQQVNEFPPTFGQGTKVEIKHHHHHH
binds | – | anti-IL-2 Ab NARA1 scFv_VL-VH-3*GGGGS-anti-CD8 OKT8 scFv_VH-VL-6*His (bispecific antibody, Single chain of two scFvs with a C-terminal His6 tag; Leader (residues 1-19) left out) DIVLTQSPASLAVSLGQRATISCKASQSVDYDGDSYMNWYQQKPGQPPKLLIYAASNLESGIPARFSGSGSGTDFTLNIHPVEEEDAATYYCQQSNEDPYTFGGGTKLEIKGGGGSGGGGSGGGGSQVQLQQSGAELVRPGTSVKVSCKASGYAFTNYLIEWVKQRPGQGLEWIGVINPGSGGTNYNEKFKGKATLTADKSSSTAYMQLSSLTSDDSAVYFCARWRGDGYYAYFDVWGAGTTVTVSSGGGGSGGGGSGGGGSEVQLVQSGAEVKKPGASVKVSCKASGFNIKDTYIHWVRQAPGQGLEWIGRIDPANDNTLYASKFQGRATITADTSTSTAYLELSSLRSEDTAVYYCGRGYGYYVFDHWGQGTLVTVSSGGGGSGGGGSGGGGSDVQITQSPSSLSASVGDRVTITCRTSRSISQYLAWYQEKPGKTNKLLIYSGSTLQSGIPSRFSGSGSGTDFTLTISSLQPEDFATYYCQQVNEFPPTFGQGTKVEIKHHHHHH
